The text below walks through data of the supplement of paper PMC10126150.

The subject of the data set is ATP. The data set can be described thus: switch fluorescence ratio, 500 uM ATP over buffer (Cy3 cluster intensity, sum of 5 cycles each) (fold (ratio)); higher = stronger signal-on switching upon ATP binding; sequences stand for … in TCGTCGGCAGCGTCAGATGTGTATAAGAGACAGTTTTTTTTTTTTTTTTTTTTTTTTT…TC. The settings on record: aptamer strand: ATP DNA aptamer (quencher-CACCTGGGGGAGTATTGCGGAGGAAGG + anchor), 100 nM annealed; ATP concentration: 500 uM. A digest of the protocol:
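Imaging in selection buffer was followed by imaging after 15 min with 500 uM ATP at 22 °C, for Cy3-labelled switching-strand clusters annealed to 100 nM quencher-labelled ATP aptamer on a modified Illumina MiSeq flow-cell. Five of these buffer/ATP cycles ran, separated by NaOH stripping and re-annealing. The fluorescence ratio per cluster is summed target-cycle over summed buffer-cycle Cy3 intensity, averaged per switch-domain sequence; clusters outside 100-1000 RFU were removed.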

± gives the standard deviation of the averaged measurements.
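Also: ATP exposure 15 min at 22 °C before imaging.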

For TACGTTGAGC, the switch fluorescence ratio is 1.02 ± 0.02.

For the sequence TACTAACCTT, the switch fluorescence ratio is 1.43 ± 0.18.

As for TACTAATGTT, the switch fluorescence ratio is 1.03 ± 0.044.

TACTAGGCTG: the switch fluorescence ratio worked out at 0.992 ± 0.081.

For the sequence TACTATATGG, the switch fluorescence ratio came to 1.03 ± 0.011.

TACTATGTGG: the switch fluorescence ratio was 1.013 ± 0.0014.

For TACTCCGTTT, the switch fluorescence ratio came out at 2.15 ± 0.34.

As for TACTCGAGTT, the switch fluorescence ratio was 0.977 ± 0.015.

For the sequence TACTCGCCGT, the switch fluorescence ratio worked out at 1.053 ± 0.0064.

As to TACTCGGGGT, the switch fluorescence ratio worked out at 1.004 ± 0.0064.

As for TACTCTGGTG, the switch fluorescence ratio was 1.43 ± 0.019.

TACTGACGGT: the switch fluorescence ratio was 1.4 ± 0.032.

Consider TACTGCTCTA, for which the switch fluorescence ratio stood at 1.022 ± 0.01.

As for TACTGTATTG, the switch fluorescence ratio was 1.03 ± 0.13.

Turning to TACTGTGGGT, the switch fluorescence ratio amounted to 0.9726 ± 0.0035.

On to TACTGTGTCT, for which the switch fluorescence ratio is 0.98144 ± 0.00053.

Take TACTTAATGT: the switch fluorescence ratio was 1.032 ± 0.0033.

Take TACTTACTAA: the switch fluorescence ratio turned out to be 1.19 ± 0.036.

Take TACTTAGCCC: the switch fluorescence ratio is 1.07 ± 0.022.

For the sequence TACTTGAGTA, the switch fluorescence ratio came out at 1.0026 ± 0.00022.

As to TACTTGATCT, the switch fluorescence ratio is 1.001 ± 0.0033.

In the case of TACTTGGGAG, the switch fluorescence ratio came to 1.027 ± 0.0036.

For the sequence TACTTGTTTT, the switch fluorescence ratio came out at 1 ± 0.033.

TACTTTCGTA: the switch fluorescence ratio came to 0.983 ± 0.011.

Consider TACTTTGCTC, for which the switch fluorescence ratio stood at 1.03 ± 0.016.

Consider TACTTTGGTT, for which the switch fluorescence ratio was determined as 0.975 ± 0.038.

In the case of TAGAAAAAGC, the switch fluorescence ratio turned out to be 0.9717 ± 0.0093.

Regarding TAGAAACGAG, the switch fluorescence ratio came out at 1.02 ± 0.087.

For TAGAAAGTGC, the switch fluorescence ratio amounted to 1.02 ± 0.099.

On to TAGAAATACT, for which the switch fluorescence ratio worked out at 1.54 ± 0.2.

On to TAGAAATGGT, for which the switch fluorescence ratio is 0.994 ± 0.041.

As for TAGAACTGGG, the switch fluorescence ratio was 1.05 ± 0.037.

Take TAGAAGGAAA: the switch fluorescence ratio is 0.9997 ± 0.0017.

For TAGAAGGAAT, the switch fluorescence ratio amounted to 1.05 ± 0.044.

Take TAGAAGTGCG: the switch fluorescence ratio was 1.01 ± 0.041.

Consider TAGAATGGC, for which the switch fluorescence ratio came out at 1.01 ± 0.054.

As to TAGAATGGCT, the switch fluorescence ratio came out at 0.9907 ± 0.0057.

Take TAGAATGTT: the switch fluorescence ratio is 1.01 ± 0.015.

For TAGAATTACT, the switch fluorescence ratio turned out to be 1.05 ± 0.056.

Take TAGAATTCTT: the switch fluorescence ratio came to 0.997 ± 0.078.

Turning to TAGAATTTTT, the switch fluorescence ratio was determined as 0.998 ± 0.017.

For the sequence TAGACAGGGG, the switch fluorescence ratio stood at 1 ± 0.037.

As to TAGACGAAAA, the switch fluorescence ratio is 1.03 ± 0.024.

For the sequence TAGACGGATT, the switch fluorescence ratio was found to be 1.04 ± 0.066.

As for TAGACTCGGT, the switch fluorescence ratio turned out to be 0.993 ± 0.053.

For TAGACTGGGG, the switch fluorescence ratio was determined as 0.966 ± 0.11.

On to TAGACTGGTG, for which the switch fluorescence ratio is 1.01 ± 0.017.

Regarding TAGACTTGTT, the switch fluorescence ratio was determined as 0.996 ± 0.02.

As for TAGAGAGGGA, the switch fluorescence ratio was 1.04 ± 0.096.

Regarding TAGAGAGGGT, the switch fluorescence ratio is 0.995 ± 0.035.

For TAGAGATTTT, the switch fluorescence ratio stood at 1 ± 0.046.

Take TAGAGGAGTT: the switch fluorescence ratio amounted to 0.951 ± 0.051.

In the case of TAGAGGATCA, the switch fluorescence ratio turned out to be 1 ± 0.056.

As to TAGAGGGAGG, the switch fluorescence ratio is 0.967 ± 0.014.

On to TAGAGGGCAG, for which the switch fluorescence ratio was 1.03 ± 0.023.

TAGAGGGGGG: the switch fluorescence ratio worked out at 0.985 ± 0.038.

On to TAGAGGTGTG, for which the switch fluorescence ratio is 0.99 ± 0.019.

On to TAGAGTTGGG, for which the switch fluorescence ratio worked out at 0.986 ± 0.015.

Turning to TAGATAGAGG, the switch fluorescence ratio is 0.961 ± 0.016.

Regarding TAGATATTGG, the switch fluorescence ratio was 1.01 ± 0.016.

Regarding TAGATCATGC, the switch fluorescence ratio stood at 0.994 ± 0.024.

Regarding TAGATCTTAC, the switch fluorescence ratio turned out to be 1.05 ± 0.046.

As to TAGATGACGG, the switch fluorescence ratio turned out to be 1.01 ± 0.041.

Consider TAGATGCCAG, for which the switch fluorescence ratio came out at 1.07 ± 0.039.

TAGATGGGAT: the switch fluorescence ratio is 0.976 ± 0.014.

For TAGATGGGGA, the switch fluorescence ratio amounted to 0.977 ± 0.035.

Take TAGATTCTGT: the switch fluorescence ratio is 0.9951 ± 0.0032.

TAGATTGTGT: the switch fluorescence ratio is 0.998 ± 0.027.

Regarding TAGATTTGGG, the switch fluorescence ratio amounted to 0.967 ± 0.0089.

TAGATTTT: the switch fluorescence ratio is 0.9953 ± 0.007.

Take TAGCAATTAT: the switch fluorescence ratio came out at 1.81 ± 0.085.

TAGCAATTTG: the switch fluorescence ratio amounted to 1.05 ± 0.053.

Take TAGCAGTGGG: the switch fluorescence ratio worked out at 0.973 ± 0.015.

In the case of TAGCCCTGCT, the switch fluorescence ratio is 1.033 ± 0.0087.

Take TAGCCGATGG: the switch fluorescence ratio worked out at 0.994 ± 0.027.

Turning to TAGCCTAGTT, the switch fluorescence ratio is 0.963 ± 0.022.

For the sequence TAGCGCAATT, the switch fluorescence ratio was found to be 1.74 ± 0.22.

As to TAGCGGAAAA, the switch fluorescence ratio came out at 1.018 ± 0.0026.

For TAGCGGAGGC, the switch fluorescence ratio turned out to be 1.03 ± 0.03.

TAGCGGGCTT: the switch fluorescence ratio was 0.983 ± 0.025.

Take TAGCGTAAAT: the switch fluorescence ratio came to 0.9913 ± 0.0049.

For the sequence TAGCTAGTAT, the switch fluorescence ratio stood at 1.63 ± 0.95.

Regarding TAGCTCGGGG, the switch fluorescence ratio amounted to 1.03 ± 0.035.

As for TAGCTGAGGG, the switch fluorescence ratio turned out to be 0.997 ± 0.015.

With TAGCTGAGTG, the switch fluorescence ratio was determined as 0.985 ± 0.043.

In the case of TAGCTTATAA, the switch fluorescence ratio was 1.08 ± 0.024.

For TAGCTTGGCA, the switch fluorescence ratio was found to be 0.991 ± 0.048.

For TAGCTTGGTG, the switch fluorescence ratio came out at 1.04 ± 0.015.

As to TAGCTTGTCA, the switch fluorescence ratio was 0.9884 ± 0.0065.

For TAGCTTGTTT, the switch fluorescence ratio was determined as 1.02 ± 0.022.

Regarding TAGCTTTGGG, the switch fluorescence ratio came out at 1 ± 0.011.

As to TAGGAAGGAG, the switch fluorescence ratio amounted to 0.98 ± 0.06.

Regarding TAGGAAGGCG, the switch fluorescence ratio is 1.01 ± 0.047.

Take TAGGAATGTT: the switch fluorescence ratio amounted to 0.9659 ± 0.0022.

In the case of TAGGACGTGG, the switch fluorescence ratio stood at 0.988 ± 0.061.

Regarding TAGGACTCGG, the switch fluorescence ratio was 0.989 ± 0.024.

For the sequence TAGGAGGAGT, the switch fluorescence ratio was 0.951 ± 0.017.

For TAGGAGGGAG, the switch fluorescence ratio stood at 1.02 ± 0.031.

For the sequence TAGGAGGGGC, the switch fluorescence ratio worked out at 0.958 ± 0.12.

On to TAGGAGTAAT, for which the switch fluorescence ratio was 1.012 ± 0.0047.

For the sequence TAGGAGTGAA, the switch fluorescence ratio stood at 0.9792 ± 0.0021.

Consider TAGGATACGG, for which the switch fluorescence ratio was 0.995 ± 0.012.

TAGGATGTGT: the switch fluorescence ratio stood at 1 ± 0.0056.

On to TAGGATTGCT, for which the switch fluorescence ratio came out at 1 ± 0.021.

Consider TAGGATTTTG, for which the switch fluorescence ratio amounted to 0.985 ± 0.033.

Take TAGGCAGAGT: the switch fluorescence ratio is 1.01 ± 0.023.

On to TAGGCATCGT, for which the switch fluorescence ratio is 0.969 ± 0.019.

TAGGCGGTGT: the switch fluorescence ratio was determined as 1.01 ± 0.012.

As for TAGGCGTGCT, the switch fluorescence ratio came out at 0.987 ± 0.013.

For TAGGCTGCGA, the switch fluorescence ratio was 1.04 ± 0.025.

TAGGCTTAGG: the switch fluorescence ratio stood at 1.029 ± 0.0019.

With TAGGGAAAAG, the switch fluorescence ratio came out at 0.99 ± 0.013.

For TAGGGAAATA, the switch fluorescence ratio stood at 1 ± 0.051.

For the sequence TAGGGACGGG, the switch fluorescence ratio is 1.07 ± 0.087.

On to TAGGGAGAAA, for which the switch fluorescence ratio was 1.46 ± 0.64.

TAGGGAGGCG: the switch fluorescence ratio was determined as 0.962 ± 0.063.

With TAGGGCACA, the switch fluorescence ratio is 1.1 ± 0.057.

TAGGGCCGTG: the switch fluorescence ratio stood at 0.977 ± 0.0059.

Regarding TAGGGCGCGG, the switch fluorescence ratio is 0.9403 ± 0.0034.

Consider TAGGGCGGGA, for which the switch fluorescence ratio was found to be 0.946 ± 0.052.
